Measured values reported in patent US20170267755A1 (SRI INTERNATIONAL, published 2017).

Target: T1, human mesothelin expressed on the plasma membrane of cells (HeLa, OVCAR-3, SK-OV-3, A1847) (human, UniProt Q13421 296-598)
T1 construct: whole, on cells; GPI-linked cell-surface form on human cell lines and on A1847 spheroid sections and tumors; also called Msln
Experiment: flow cytometry on HeLa cells, chemically biotinylated Nb, PE-streptavidin, double-reciprocal fit
Description: In specific experimental embodiments, the affinity of the two Nbs, Nb A1 and Nb C6, can determined by flow cytometry using HeLa cells. Binding to HeLa cells can be detected using flow cytometry after incubation with various concentrations of biotinylated Nbs followed by PE-labeled streptavidin. KD values are determined by the equation KD=a *Fₘₐₓ in which “a” is the regression line and Fₘₐₓ is the maximum of fluorescence. […] In addition, the higher affinity and maximum mean fluorescence intensity (MFI) achieved with Nb A1 is consistent with its predominant representation in the phage display output and the larger fluorescence shift seen with flow cytometry.
Briefly, fifty μg of each Nb are biotinylated chemically using the EZ-Link Micro NHSPEO4-Biotinylation Kit. After incubation of mesothelin-positive HeLa cells (5×10⁵) with various concentrations of biotinylated Nbs for one hour at four degrees C. under shaking (nine hundred rpm), Nbs binding is detected by flow cytometry following incubation with (PE)-labeled streptavidin. The KD values are determined by the equation: […]

T1 sequence (Q13421 other isoform, or with tags, fused parts or gaps limits assumed): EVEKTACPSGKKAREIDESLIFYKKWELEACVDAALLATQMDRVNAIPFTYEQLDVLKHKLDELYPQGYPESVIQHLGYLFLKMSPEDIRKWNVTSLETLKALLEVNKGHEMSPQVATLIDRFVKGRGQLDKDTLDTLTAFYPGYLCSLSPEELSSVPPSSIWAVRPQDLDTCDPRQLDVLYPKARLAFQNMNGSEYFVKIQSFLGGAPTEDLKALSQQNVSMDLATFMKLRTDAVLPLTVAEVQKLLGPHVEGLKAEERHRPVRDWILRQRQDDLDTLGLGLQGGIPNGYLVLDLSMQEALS

| Binder | Kd [nM] |
| --- | --- |
| Nb C6 (VHH, Llama VHH made in the E. coli periplasm with a C-terminal His tag; also called F10; not shown: C-terminal hexahistidine tag) VHH: QAGGSLRLSCAPSGSIFGIRTMDWYRQAPGKERELVARITMDGRVFHADSVKGRFSGSRDGASNAVYLQMNSLKPDDTAVYYCRYSGLTSREDYWGP | 30 |
| Nb A1 (VHH, Llama VHH made in the E. coli periplasm with a C-terminal His tag; also called G3A; G3a; not shown: C-terminal hexahistidine tag) VHH: HPGGSLRLSCAASGIDLSLYRMRWYRQAPGKERDLVALITDDGTSYYEDSVKGRFTITRDNPSNKVFLQMNSLKPEDTAVYYCNAETPLSPVNYWGQ | ~15 |
